Test results as given in paper PMC7141811.

Experiments:
[1] = target: mEGFP-CaMKII-α (human Ca2+/calmodulin-dependent protein kinase II α, Avitag-linker-mEGFP-linker-CaMKII-α) (human) (UniProt Q9UQM7)
[2] = target: mEGFP-CaMKII-α (human Ca2+/calmodulin-dependent protein kinase II α, Avitag-linker-mEGFP-linker-CaMKII-α) (human) (UniProt Q9UQM7); test: single-molecule pull-down with TIRF colocalisation; mEGFP-CaMKII-α and mCherry-CaMKII-β* co-transfected in HEK 293T cells (α:β* 3:1 and 1:1); biotinylated holoenzymes captured from 100-200x diluted lysate on streptavidin-coated glass; colocalisation of green and red spots; data not shown

Chain of UniProt Q9UQM7 (Q9UQM7 whole entry): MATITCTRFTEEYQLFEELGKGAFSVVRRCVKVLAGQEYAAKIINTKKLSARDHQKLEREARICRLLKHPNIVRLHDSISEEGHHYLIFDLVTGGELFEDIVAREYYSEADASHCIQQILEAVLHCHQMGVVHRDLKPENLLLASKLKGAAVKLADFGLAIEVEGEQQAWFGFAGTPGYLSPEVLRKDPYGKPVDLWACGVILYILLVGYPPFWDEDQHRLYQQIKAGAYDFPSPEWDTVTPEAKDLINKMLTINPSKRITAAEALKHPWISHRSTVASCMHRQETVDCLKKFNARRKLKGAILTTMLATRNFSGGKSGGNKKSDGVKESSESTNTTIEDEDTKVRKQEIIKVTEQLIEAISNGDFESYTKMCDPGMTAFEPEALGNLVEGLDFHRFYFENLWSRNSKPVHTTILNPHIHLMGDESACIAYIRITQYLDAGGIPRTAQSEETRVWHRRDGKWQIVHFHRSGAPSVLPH

Substance: calmodulin (Ca2+/calmodulin) (from UniProt P62157 1-149) (natural protein)
- EC50 of CaMKII-α activation (autophosphorylation at Thr 286 of glass-immobilised holoenzymes, single-molecule TIRF) by Ca2+/CaM, 20 nM to 5 μM, 100 μM Ca2+, ATP [1]: 50 to 100 nM

Substance: mCherry-CaMKII-β* (CaMKII-α in which the kinase-hub linker is replaced by that from CaMKII-β) (enzyme)
- percent colocalization of red and green spots (heterooligomeric holoenzymes) [2]: 80%
